Source: patent US20140314711A1

T1: human IL-22 receptor complex IL22R1 and IL10R2 (human) (UniProt Q8N6P7)
T1 sequence (looked up) 1: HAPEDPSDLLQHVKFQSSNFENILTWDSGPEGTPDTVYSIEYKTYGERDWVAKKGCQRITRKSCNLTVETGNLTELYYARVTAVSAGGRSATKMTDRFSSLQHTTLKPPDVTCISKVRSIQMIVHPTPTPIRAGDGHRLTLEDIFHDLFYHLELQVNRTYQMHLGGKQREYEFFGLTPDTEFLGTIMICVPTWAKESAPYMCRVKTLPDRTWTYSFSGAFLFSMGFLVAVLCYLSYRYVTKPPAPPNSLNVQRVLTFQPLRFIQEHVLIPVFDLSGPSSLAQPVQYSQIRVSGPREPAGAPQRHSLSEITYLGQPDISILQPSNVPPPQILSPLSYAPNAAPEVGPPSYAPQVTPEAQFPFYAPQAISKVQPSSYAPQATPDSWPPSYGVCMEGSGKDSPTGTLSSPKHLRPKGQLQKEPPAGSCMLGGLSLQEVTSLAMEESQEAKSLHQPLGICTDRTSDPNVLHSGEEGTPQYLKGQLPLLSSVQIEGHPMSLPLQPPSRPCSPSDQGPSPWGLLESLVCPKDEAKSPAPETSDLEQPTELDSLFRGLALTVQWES
T1 sequence (looked up) 2: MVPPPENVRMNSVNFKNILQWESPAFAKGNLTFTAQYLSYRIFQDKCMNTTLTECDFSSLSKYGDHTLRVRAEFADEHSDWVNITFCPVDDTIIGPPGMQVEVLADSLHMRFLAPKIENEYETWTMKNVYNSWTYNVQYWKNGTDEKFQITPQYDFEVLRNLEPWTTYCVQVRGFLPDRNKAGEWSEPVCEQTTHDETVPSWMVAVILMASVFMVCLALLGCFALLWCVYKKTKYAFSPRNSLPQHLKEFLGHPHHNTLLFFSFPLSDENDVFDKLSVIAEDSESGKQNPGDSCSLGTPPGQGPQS


molecular target: T1, human IL-22 receptor complex IL22R1 and IL10R2 (human); experiment: cell-based or functional assay

EC50 (STAT3 luciferase reporter assay) [pM] | Binder
25 | IL-22 Fc construct 13 (huIgG1, linker …) (Fc fusion, not shown: a dimerising Fc or GST) APISSHCRLDKSNFQQPYITNRTFMLAKEASLADNNTDVRLIGEKLFHGVSMSERCYLMKQVLNFTLEEVLFPQSDRFQPYMQEVVPFLARLSNRLSTCHIEGDDLHIQRNVQKLKDTVKKLGESGEIKAIGELDLLFMSLRNACIKVDKKVEPKSSDKTHTCPPCP
16 | IL-22 Fc construct 24 (huIgG1, linker …, produced in E. coli) (Fc fusion, not shown: a dimerising Fc or GST) APISSHCRLDKSNFQQPYITNRTFMLAKEASLADNNTDVRLIGEKLFHGVSMSERCYLMKQVLNFTLEEVLFPQSDRFQPYMQEVVPFLARLSNRLSTCHIEGDDLHIQRNVQKLKDTVKKLGESGEIKAIGELDLLFMSLRNACIEPKSSDKTHTCPPCP
25 | IL-22 Fc construct 12 (huIgG1, linker …) (Fc fusion, not shown: a dimerising Fc or GST) APISSHCRLDKSNFQQPYITNRTFMLAKEASLADNNTDVRLIGEKLFHGVSMSERCYLMKQVLNFTLEEVLFPQSDRFQPYMQEVVPFLARLSNRLSTCHIEGDDLHIQRNVQKLKDTVKKLGESGEIKAIGELDLLFMSLRNACIDKKVEPKSSDKTHTCPPCP
20 | IL-22 Fc construct 18 (huIgG1, linker …, N297G) (Fc fusion, not shown: a dimerising Fc or GST) APISSHCRLDKSNFQQPYITNRTFMLAKEASLADNNTDVRLIGEKLFHGVSMSERCYLMKQVLNFTLEEVLFPQSDRFQPYMQEVVPFLARLSNRLSTCHIEGDDLHIQRNVQKLKDTVKKLGESGEIKAIGELDLLFMSLRNACIKKVEPKSSDKTHTCPPCP
